Laboratory results: a protein production outcome set (Wang et al. 2014)

Test: label from the status in PepcDB records

| Sequence | protein production |
| --- | --- |
| MASATEDPVLERYFKGHKAAITSLDLSPNGKQLATASWDTFLMLWNFKPHARAYRYVGHKDVVTSVQFSPHGNLLASASRDRTVRLWIPDKRGKFSEFKAHTAPVRSVDFSADGQFLATASEDKSIKVWSMYRQRFLYSLYRHTHWVRCAKFSPDGRLIVSCSEDKTIKIWDTTNKQCVNNFSDSVGFANFVDFNPSGTCIASAGSDQTVKVWDVRVNKLLQHYQVHSGGVNCISFHPSGNYLITASSDGTLKILDLLEGRLIYTLQGHTGPVFTVSFSKGGELFASGGADTQVLLWRTNFDELHCKGLTKRNLKRLHFDSPPHLLDIYPRTPHPHEEKVETVEINPKLEVIDLQISTPPVMDILSFDSTTTTETSGRTLPDKGEEACGYFLNPSLMSPECLPTTTKKKTEDMSDLPCESQRSIPLAVTDALEHIMEQLNVLTQTVSILEQRLTLTEDKLKDCLENQQKLFSAVQQKS | failed |
| MTRRVKTGIPGVDEILHGGIPERNVVLLSGGPGTGKTIFSQQFLWNGLKMGEPGIYVALEEHPVQVRQNMAQFGWDVKPYEEKGMFAMVDAFTAGIGKSKEYEKYIVHDLTDIREFIEVLRQAIRDINAKRVVVDSVTTLYINKPAMARSIILQLKRVLAGTGCTSIFVSQVSVGERGFGGPGVEHGVDGIIRLDLDEIDGELKRSLIVWKMRGTSHSMRRHPFDITDKGIIVYPDKVLKRGKVLEL | not failed |
| MRTLLITGPGGSGRTTVAAATALRASRTGTRTLVLSADRTDTLGAALGVPTGGAPVEAAPGLTAWRPDAADRFRADLTAFQDRAATALDFLGAARLDAEELTPLPGAEELALLRALRDAALSEAYDLLVVDLPPAPQALALLALPEELRRYLRRLLPPERQAARALRPVLGRLAGVPMPADWLYETAARWDVELAAVEAVVEDRATTVRLVAEPGPAGADAVRAAATGFALRAVRIDTLIANRLLPEEADDAWSAGLAAQQRKFLEEWRGEYRLHELPHLGHDPRGADDLAALAVPGVNDAPGPVEWSVADRLADDGVLVWHIPLPGAIRDELDLLRRGDELVVTAGQFRRIVPLPSALRRCTVAGAALREGELRIRFAPDPDLWPRERLEHHHHHH | not failed |
| MFHVSFRYIFGLPPLILVLLPVASSDCDIEGKDGKQYESVLMVSIDQLLDSMKEIGSNCLNNEFNFFKRHICDANKEGMFLFRAARKLRQFLKMNSTGDFDLHLLKVSEGTTILLNCTGQVKGRKPAALGEAQPTKSLEENKSLKEQKKLNDLCFLKRLLQEIKTCWNKILMGTKEH | failed |
| MFKEVGEPNFPKLEEEVLAFWKREKIFQKSVENRKGGPRYTVYEGPPTANGLPHVGHAQARSYKDLFPRYKTMRGYYAPRRAGWDTHGLPVELEVEKKLGLKSKREIEAYGIERFNQACRESVFTYEKEWEAFTERIAYWVDLENAYATLEPTYIESIWWSLKNLFDRGLLYRDHKVVPYCPRCGTPLSSHEVALGYKEIQDPSVYVRFPLKEPKKLGLEKASLLIWTTTPWTLPGNVAAAVHPEYTYAAFQVGDEALILEEGLGRKLLGEGTPVLKTFPGKALEGLPYTPPYPQALEKGYFVVLADYVSQEDGTGIVHQAPAFGAEDLETARVYGLPLLKTVDEEGKLLVEPFKGLYFREANRAILRDLRGRGLLFKEESYLHSYPHCWRCSTPLMYYATESWFIKNTLFKDELIRKNQEIHWVPPHIKEGRYGEWLKNLVDWALSRNRYWGTPLPIWVCQACGKEEAIGSFQELKARATKPLPEPFDPHRPYVDQVELACACGGTMRRVPYVIDVWYDSGAMPFASLHYPFEHEEVFRESFPADFIAEGIDQTRGWFNFLHQLGVMLFGSIAFKNVICHGLILYEMGQKMSKSKGNVVDPWDIIREFGADALRWYIYVSAPPEADRRFGPNLVRETVRDYFLTLWNVYSFFVTYANLDRPDLKNPPPPEKRPEMDRWLLARMQDLIQRVTEALEAYDPTTSARALRDFVVEDLSQWYVRRNRRRFWKNEDALDREAAYATLYEALVLVATLAAPFTPFLAEVLWQNLVRSVRPEAKESVHLADWPEADPALADEALVAQMRAVLKVVDLARAARAKSGVKTRTPLPLLLVTAPTALEREGLKRFAHEIAEELNVKEVRVLEPGEEILSYRVLPNLKLLGRKYGKLVPKIREALQRERERAAALALKGEAIPLEVEGEALTLLPEEVLLEAEAPKGYQALEKDGYVAALKVEVTEALRMEGLARDLIRLLQQARKDMGLKVSDRIRVGYEAEGPYLEALKRHGPWIAEEVLATAFGEGLFGGFEARVEDEEGKAVFHLARAE | not failed |
| MRYGFMKVAAAVPFVKVADCEYNIERIDRMVHEADAKGVEIMTFPELSITGYSCGDLFFQPFLQERANEALCRLVEQTANTTVMVIVGMPLRVEEKLFNSAVVFQQGKILGAIPKTYLPNYREFQEARWFSPAHTLQYSTISIGQHSVPIGRNLIFKCGTVGVGIEICEDMWTPFTPGTRLCLYGAEVIFNLSSSNENAGKHSYLRSLISGLSSQGICAYVYASSGYGESSTDIVFTGKAFIAEAGEIVEEMERFRYEERMIISDIDVSRIQTERLINSSFKA | failed |
| MLLSVIITAQGRKGYVMQAVRSVLSQNIPKEDFEIIVSKDFKDDVIDEFLDGRAIVLNENHIRSGSRVASAVLQSSGKILVFLDDDDLFYPGKLREVKIVFSEMGVDYFKNSVKPVAESGDTVSYYQPAIKSDIFVKEPNEQDIRKLLKLRAGFNSSSISLKKDILVGYLDVLSKINLAVDSFYFFLYMSHSRPIYYSKKTLSLYRVLSKSTSRDVRNINAYAEFKSKFYELYSRDFETISEMASDGPCSKLAKTEFHLQMAYKWIFNTYRKEERPRMLHTLASSIYSHDPFIALPWPSFMKKIVQRREYFREKKLLSENTELEHHHHHH | failed |
| MSTARPRIITSKAPLLPQQTTPEQRYWRQYTSAQLVKEHNSVTHISFNPQHPHDFAVTSSTRVQIFSSRTRQVIKTFSRFKDVVYSASFRSDGKLLCAGDATGLVSVYDSYNPRTILLSINASTHPTHVTKFHTQDNKILATASDDRVTRLWDISNAYEPQLELTGATDYVRTLSFIPAAPHLVATGSYDGLIRLYDTRSSGSTPIYSLNHDQPVENVIAVSPTQIVSCGGNNFKVWDLTSNKKLYERGNFNKAVTCLDYVENFDSPMQSALIASSLDGHVKVFDPLDNFQVKFGWKFSGPVLSCAVSPSTAQGNRHLVAGLSSGLLAIRTKKKEKRSSDKENAPASFNKNAKSNNFQRMMRGSEYQGDQEHIIHNDKVRSQRRMRAFERNINQFKWSEALDNAFVPGMAKELTLTVLQELRKRGKVRVALYGRDESTLEPLLNWCLKGIEDVRSASIVADWVAVVLELYGNTLESSPVLQELMIDLKTKVRHEIHKSKEAQRIEGMLQLLTS | failed |
| MADMESLDTAEMQEAAEKQAALFPNGGKSAEPTAAKHTATGLADGNKKPPVSNSFLDKFFQISKRGSTLAREFRGGLVTFFTMAYIVILNPLILGGFSAENAPTDVAGGWLSAAQVGAVTGLTAGVMTIIFGLVANLPFGLAAGLGINSFLAVAVIQEVTWPEAMGLVVINGILIVLFGATGARTAIFKAVPKELKAAITVGIGLFIAFIGFVDSGFVRATTGGPPVQLGDNGSITSIPTLVFIVGLLTMGILVARKIQGGLLIGIVATTVLAAVVEAVFHIGPGSADNPGGWHLNVPILSSQLVSVPDLSLVGQFDLFGSFARIGGLAATMLVFTLVFTNFFDAMGTMTGLAKSAGVAHKDGTFPKLKSAFIVEGMGAVVGGATSGSSNTVYIDSAAGIGEGARTGLASVVTGLLFLGSMFFTPLTSVVPLEVAAAALVVVGAMMMAQIREIKFTKFSIALPAFLTIVTMPLTYSIANGIGVGFISFAVISAASGKAKKVHPLMWVVTAGFIIYFARGPINALMGV | failed |
| MASSALCFFLMSDLFEPPPDFPARSALRRDCTACGACCSAPDIHALGKPLGVPCRFLGAENTQGACLCGIYLERPAVCRSYAPDWVCGEVAPLPTLEARIRRFLEIYGLDPVTGLEHHHHHH | failed |
| MCPYITRRNDVMNDTFDYIFGYALSTALARYWVNPDGSQGGIVSIDAKIDASVMIGKDAVVFPDANIAERACIAEKVCIGNAVRIGKHAMIDHGASIGDRSNIGERSRIYQDSFIGENAVIAARACIGEKVYIGNFVSLAKDSIIDDGVNIGERSSIGERTRIRQGSFIRKGCVIRQRSVIAKRAYIDEGVYIGNVVRIGEESMIHRRSRIGSGARIGGSVCIGVYCRIDGSVRIGQHADIGEWVNIDGHARIGNFARIGEWSRIGGRANIAAHVVLEKQSIIHSETCIQDASKTSVDMPKDAGI | failed |
| MSLDKGDKAPDFALPGKTGVVKLSDKTGSVVYLDFWASWCGPCRQSFPWMNQMQAKYKAKGFQVVAVNLDAKTGDAMKFLAQVPAEFTVAFDPKGQTPRLYGVKGMPTSFLIDRNGKVLLQHVGFRPADKEALEQQILAALGGNEGHHHHHH | not failed |
| MLPSESTLLTNATILTGTGERINNGDILLVNGKVTQVGNNLSVEQATVIDMKGKWITPGIIDVHSHLGVYPNPEVLEHHHHHH | not failed |
| MSTTGRIHSFESCGTVDGPGIRFIVFLQGCLMRCKYCHNRDTWDTHDGKEVTVEEIIAEAKSYRHFMNASGGGITCSGGEAMLQPEFVRDFFRAAHAEGIHTCLDTNGYIRKHTEVIDEVLDATDLVMLDIKHMKDEIHQDFIGVSNRRTLDFARYLHKIGQKTWIRYVVVPGYTDDPEAAHMLGEFIKDMDNIEKVELLPYHKLGAHKWEALGLEYPLEGVNPPSKETMDEIQSILSQYHSNVKYLEHHHHHH | failed |
| MTKIIKYTNKDNETLYKFRFYAGLDEITGKQRYIRRQGFKSEKDAKTELLKIEYLVSTNQYFKSVKSGKFGDVLDEWLALHKETVKASTWRYIERRVKNHVRPYFKDMYVDKITLRHCQDFTNKAFAAAPVGFTQIISIVKNTLDYALRLGMIESNPMLYVIKPKKQTTISDKHGNYYNKDELKKFLAAAKDTDLKKYTLFRLLAYSGLRVGECLALTWHDLDYKNNTIAINKTYAKTNNGIKIQTPKTKASIRKVSLDVETIQVLKEWQLNQRKQLLKVGINAMNKQQLIFSNNKNSFIANETVRLAIHQIAKKTGIHPITTHGFRHTHATLLFASGMDIKQVQARLGHSNVQTTLNIYTHAIQDKQDKIGDEFAKYINF | failed |
| MTSPVQATPEPQPGLVARLSAEALGSMFVVVAAVGVGIFSNPGAAPLPAALATGLTVTAAMLAFGYVSGGHFNPAITLGNLIAGRIRAVAAVAYVAAQIIGSVVGAALMYFVVTTVPVLTDARAAFDVVAPGFGDHASAQTQMAGVLLVEVLGSALLVAVFLGATAGRRALPAMAPFAVGLAMAVLLQLGQVLGNLPFNPARATAQAFFSSPWAIEGLWLFWVAPLMGAALAGLAFRGFQGLSQAAVADTDHFHGGTDGINDAFDADDEPAEDSEVKEEAAAKADIAPSRAVPTVPVTDDARDFFDGKKGK | failed |
| VQRCVIIQKDQHGFGFTVSGDRIVLVQSVRPGGAAMKAGVKEGDRIIKVNGTMVTNSSHLEVVKLIKSGAYVALTLLGSS | not failed |
| MRRSMRMNMSVASNIHSLLARLLPERVIAPPAPAGRRQRLFSGVGLPSQRSLLVNRLDEANDLQAVYVDLRRQALQGSVSALNDLGWIWLNGKYWRADTVLAGHLLRMAALQGNAAAWFNLGQQHYFGKGIDPSYVQAAECYRQAFDRGMLHAAAALGDLYEEEVCDGDLEWQVDLVQAYQWFLRGAEQGEARCRFEMGYRLMHGLHVEANLKAALYWLELAAAAGVVQAAEELAVHFSSRDAVRYQEWRDRAVQMGSTLALTMKLEDQIHP | failed |
| MRSNHLPCWHTGPLSTLNVRPHLARAWHPLVCIYQRCLATALPTAPAVDSYCISTEIPYYDLVGRLGGKGPSKQTFTMQMLFHKKQRTPLGFCDGLDNVFVGFGSKDEKGCRPPKYHASYAPYYPIHKAASMGDVNTVKSFVERGVFAMEQTDWKYRTALHFACVYGHPEVVTLLVESSCEISPKDIKDATPLIKASQCRQTECLNILLKHGADPNIMDCSDNTALHYAVYNGDIETATKLLEYKANIEAINENKITPLLLALKQNKEKMAEFLIHNGANAKTCDFLGRSSLMYAVRCGSELIIKLLLQRDIDTFKQDVFGWTAKRYAVESKSRVRKLLIDYDEEELRQRCSVPKLSSSSLKELCLDSHYDRNTNISNTGKTREKFSQCTLWEEEHPILPTVKVKDSPRSEAVEKAEARPSKSESNEEDTCTTPTLPTTKVKDPSQSEAVEKAEARPSKSGKLTV | failed |
